Reference: patent US20210238276A1 (INTEGRAL MOLECULAR, published 2021)

Assays:
Assay in all cases: flow cytometry, alanine-scan library in HEK-293T
[1] = target: T1, hsGLUT4 F314A (human, UniProt P14672 1-509)
T1 sequence: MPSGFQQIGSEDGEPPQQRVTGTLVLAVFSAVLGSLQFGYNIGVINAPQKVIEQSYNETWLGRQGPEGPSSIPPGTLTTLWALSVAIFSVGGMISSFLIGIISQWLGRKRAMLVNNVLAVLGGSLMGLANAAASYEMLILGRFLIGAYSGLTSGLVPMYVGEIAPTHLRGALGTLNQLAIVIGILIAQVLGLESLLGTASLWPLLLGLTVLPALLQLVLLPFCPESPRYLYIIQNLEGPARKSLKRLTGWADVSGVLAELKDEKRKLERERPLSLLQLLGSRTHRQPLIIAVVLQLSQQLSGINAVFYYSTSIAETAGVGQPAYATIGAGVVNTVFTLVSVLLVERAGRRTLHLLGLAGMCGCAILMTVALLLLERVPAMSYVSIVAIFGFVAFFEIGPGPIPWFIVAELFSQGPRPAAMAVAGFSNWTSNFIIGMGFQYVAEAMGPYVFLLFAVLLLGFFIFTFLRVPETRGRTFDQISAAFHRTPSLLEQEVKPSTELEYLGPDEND
In short: (§1)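 HEK-293T cells expressing individual GLUT4 alanine mutants were stained 48 h post-transfection with anti-GLUT4 scFv MAbs (2 μg/ml), then biotinylated secondary and streptavidin-PerCP, and read by high-throughput flow cytometry. Where used, cytochalasin B (10 uM final) was given for 30 min before and during primary antibody staining.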

[2] = target: T2, hsGLUT4 L247A (human, UniProt P14672 1-509)
T2 sequence: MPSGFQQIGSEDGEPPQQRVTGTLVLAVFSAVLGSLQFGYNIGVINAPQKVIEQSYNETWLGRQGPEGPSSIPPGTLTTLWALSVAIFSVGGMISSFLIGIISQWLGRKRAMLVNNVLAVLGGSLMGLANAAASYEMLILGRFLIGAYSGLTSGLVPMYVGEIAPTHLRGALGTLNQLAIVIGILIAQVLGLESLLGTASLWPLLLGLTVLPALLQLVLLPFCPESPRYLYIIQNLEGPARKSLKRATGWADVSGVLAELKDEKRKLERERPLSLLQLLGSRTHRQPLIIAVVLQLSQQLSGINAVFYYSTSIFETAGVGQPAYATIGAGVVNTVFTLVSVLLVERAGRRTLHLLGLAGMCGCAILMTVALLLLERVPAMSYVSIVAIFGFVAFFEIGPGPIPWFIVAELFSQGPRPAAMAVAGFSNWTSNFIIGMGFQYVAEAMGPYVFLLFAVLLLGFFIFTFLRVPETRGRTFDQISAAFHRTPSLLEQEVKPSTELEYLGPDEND
In short: as §1

[3] = target: T3, hsGLUT4 I163A (human, UniProt P14672 1-509)
T3 sequence: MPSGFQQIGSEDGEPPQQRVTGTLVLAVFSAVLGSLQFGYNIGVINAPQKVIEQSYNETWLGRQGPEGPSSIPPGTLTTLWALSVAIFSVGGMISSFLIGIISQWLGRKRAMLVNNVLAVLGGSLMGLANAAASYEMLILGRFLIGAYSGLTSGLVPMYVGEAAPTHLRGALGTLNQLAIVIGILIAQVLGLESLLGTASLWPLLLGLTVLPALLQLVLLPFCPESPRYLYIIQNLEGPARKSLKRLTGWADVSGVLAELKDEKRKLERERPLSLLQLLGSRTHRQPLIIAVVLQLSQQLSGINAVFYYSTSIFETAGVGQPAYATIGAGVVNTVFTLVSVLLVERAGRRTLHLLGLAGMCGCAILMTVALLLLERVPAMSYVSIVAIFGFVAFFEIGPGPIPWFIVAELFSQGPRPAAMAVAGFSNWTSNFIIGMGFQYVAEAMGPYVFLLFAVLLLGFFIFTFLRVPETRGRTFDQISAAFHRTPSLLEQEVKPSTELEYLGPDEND
In short: as §1

[4] = target: T4, hsGLUT4 E345A (human, UniProt P14672 1-509)
T4 sequence: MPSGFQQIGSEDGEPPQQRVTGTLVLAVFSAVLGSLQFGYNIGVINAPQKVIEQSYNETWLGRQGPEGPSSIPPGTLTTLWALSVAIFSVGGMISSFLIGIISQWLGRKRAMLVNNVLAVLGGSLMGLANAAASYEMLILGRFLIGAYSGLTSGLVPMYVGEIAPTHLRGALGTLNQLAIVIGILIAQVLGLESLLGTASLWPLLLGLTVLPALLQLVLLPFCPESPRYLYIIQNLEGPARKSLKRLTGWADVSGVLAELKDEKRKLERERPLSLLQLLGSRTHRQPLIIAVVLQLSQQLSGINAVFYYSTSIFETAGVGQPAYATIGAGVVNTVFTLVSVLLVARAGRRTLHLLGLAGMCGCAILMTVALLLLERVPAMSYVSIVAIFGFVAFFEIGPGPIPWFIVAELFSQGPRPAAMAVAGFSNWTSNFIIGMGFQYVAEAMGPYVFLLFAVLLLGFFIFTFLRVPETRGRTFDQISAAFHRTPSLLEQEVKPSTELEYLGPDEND
In short: as §1

## 1F8 (antibody)
[1]
  % of binding to wild type GLUT4: 91%
[2]
  % of binding to wild type GLUT4: 95%
[3]
  % of binding to wild type GLUT4: 91%
[4]
  % of binding to wild type GLUT4: 93%

B1: AB101 (scFv)
scFv: ALTQPSSVSANPGETVKITCSGSSNSYGWYQQKSPGSAPVTVIYYNDKRPSDIPSRFSGSKSDSTHTLTITGVRAEDEAVYFCGSYDSTYVGIFGAGTTLTVLGQSSRSSGGGGSSGGGGSAVTLDESGGGLQTPGGTLSLVCKASGFTFSSNAMGWVRQAPGKGLEWVAGISSDGRYTKYGSAVKGRATISRDNGQSTVRLQLNNLRAEDTGTYFCAKAFGNNYRRIYAGQIDAWGHGTEVIVSS
notes: Chicken-derived clone used as a control; the four lead clones were tested as scFv-human IgG1 Fc; also called MAb AB101
[1]
  % of binding to wild type GLUT4: 91%
[2]
  % of binding to wild type GLUT4: 111%
[3]
  % of binding to wild type GLUT4: 115%
[4]
  % of binding to wild type GLUT4: 78%

B2: AB111 (Fc fusion)
scFv: ALTQPSSVSANPGETVKITCSGSGSWYGWFQQKSPGSAPVTVIYSNDKRPSDIPSRFSGSKSGSTSTLTITGVQVEDEAVYYCGNWDIFGAGTTLTVLGQSSRSSGGGGSSGGGGSAVTLDESGGGLQTPGGALSLVCKASGFTFSSHGMGWVRQAPGKGLEWVASISTGRYTFYAPAVKGRATISRDNGQSTVRLQLNNLRAEDTATYYCTKCAGLNGCGGGEIDAWGHGTEVIVSS
notes: Bivalent scFv-Fc; also called MAb AB111; not shown: Fc fragment of human IgG1, cloned in frame with the scFv
[1]
  % of binding to wild type GLUT4: 166%
[2]
  % of binding to wild type GLUT4: 99%
[3]
  % of binding to wild type GLUT4: 87%
[4]
  % of binding to wild type GLUT4: 200%

B3: AB108 (Fc fusion)
scFv: ALTQPSSVSANLGGTVKITCSGSSGSYGWYQQKAPGSAPVTLIYRNDKRPSDIPSRFSGSESGSTGTLTITGVQAEDEAVYFCGGYDSSAGYAAFGAGTTLTVLGQSSRSSGGGGSSGGGGSAVTLDESGGGLQTPGGALSLVCKASGFTFSSHGMGWVRQAPGKGLEWVGSISTGRYTFYAPAVKGRATISRDNGQSTLRLQLNNLRAEDTGTYYCTKCAGLNGCGGGEIDAWGHGTEVIVSS
notes: Bivalent scFv-Fc; also called MAb AB108; not shown: Fc fragment of human IgG1, cloned in frame with the scFv
[1]
  % of binding to wild type GLUT4: 92%
[2]
  % of binding to wild type GLUT4: 110%
[3]
  % of binding to wild type GLUT4: 90%
[4]
  % of binding to wild type GLUT4: 88%
